Measurements published in publication PMC11252414, “Enhancing the performance of porous silicon biosensors: the interplay of nanostructure design and microfluidic integration”.

What was measured:
Settings in all cases: protein: commercial; label: none; single strand
lactoferrin (LF) [1] = molecular target: T1, lactoferrin (LF) (bovine (milk), UniProt P24627 20-708); assay: RIFTS (porous Si interferometry); plain microchannel, 30 ul/min; Selection buffer: PBS (137 mM NaCl, 10 mM Na2HPO4, 2.7 mM KCl, 2 mM KH2PO4) + 1 mM MgCl2, pH 7.4, room temperature; GI fluid at 37 C
lactoferrin (LF) [2] = molecular target: T1, lactoferrin (LF); assay: RIFTS (porous Si interferometry); SHM (herringbone) microchannel, 30 ul/min; Selection buffer: PBS (137 mM NaCl, 10 mM Na2HPO4, 2.7 mM KCl, 2 mM KH2PO4) + 1 mM MgCl2, pH 7.4, room temperature; GI fluid at 37 C
lactoferrin (LF) [3] = molecular target: T1, lactoferrin (LF); assay: RIFTS (porous Si interferometry); impeller-integrated microchannel, 30 ul/min; Selection buffer: PBS (137 mM NaCl, 10 mM Na2HPO4, 2.7 mM KCl, 2 mM KH2PO4) + 1 mM MgCl2, pH 7.4, room temperature; GI fluid at 37 C
lactoferrin (LF) [4] = molecular target: T1, lactoferrin (LF); assay: RIFTS (porous Si interferometry); PEG-passivated, LF-spiked porcine GI fluid, 37 C; apparent, LOD 600 nM suggests uM; Selection buffer: PBS (137 mM NaCl, 10 mM Na2HPO4, 2.7 mM KCl, 2 mM KH2PO4) + 1 mM MgCl2, pH 7.4, room temperature; GI fluid at 37 C
lactoferrin (LF) [5] = molecular target: T1, lactoferrin (LF); assay: RIFTS (porous Si interferometry); cell setup, selection buffer, Tris-passivated, 1 mM Mg2+; apparent; Selection buffer: PBS (137 mM NaCl, 10 mM Na2HPO4, 2.7 mM KCl, 2 mM KH2PO4) + 1 mM MgCl2, pH 7.4, room temperature; GI fluid at 37 C

T1 sequence (P24627 20-708): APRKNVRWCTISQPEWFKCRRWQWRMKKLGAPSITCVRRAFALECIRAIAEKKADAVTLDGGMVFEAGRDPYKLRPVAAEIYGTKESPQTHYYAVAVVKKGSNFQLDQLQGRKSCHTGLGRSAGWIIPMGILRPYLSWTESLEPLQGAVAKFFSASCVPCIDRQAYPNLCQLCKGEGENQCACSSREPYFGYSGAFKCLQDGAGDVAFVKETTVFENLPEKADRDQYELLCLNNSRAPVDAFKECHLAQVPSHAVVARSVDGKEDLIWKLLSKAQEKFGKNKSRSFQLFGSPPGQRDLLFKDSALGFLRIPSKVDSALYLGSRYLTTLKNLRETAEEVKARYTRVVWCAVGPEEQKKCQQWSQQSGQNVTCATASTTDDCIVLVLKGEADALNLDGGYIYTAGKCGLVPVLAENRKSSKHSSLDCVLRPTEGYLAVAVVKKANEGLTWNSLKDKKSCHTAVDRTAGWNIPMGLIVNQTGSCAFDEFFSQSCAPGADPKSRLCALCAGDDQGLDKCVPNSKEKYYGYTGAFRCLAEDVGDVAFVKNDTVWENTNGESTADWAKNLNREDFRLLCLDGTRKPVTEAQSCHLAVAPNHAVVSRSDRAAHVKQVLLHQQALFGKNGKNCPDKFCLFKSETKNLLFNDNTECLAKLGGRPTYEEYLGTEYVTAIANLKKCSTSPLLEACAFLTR

B1: Lac 9-2 anti-LF aptamer with T10 spacer (ssDNA)
DNA: CAGGCAGGACACCGTAACCGGTGCATCTATGGCTACTAGCTCTTCCTGCCTATTTTTTTTTT
modifications: 3'-amino, coupled via NHS/EDC to carboxylated porous Si
Binder B1 has a Kd (lactoferrin (LF) [1]) of 2000 ± 1000 nM, a Kd (lactoferrin (LF) [2]) of 1600 ± 600 nM and a Kd (lactoferrin (LF) [3]) of 1300 ± 600 nM. For the same binder, the Kd (lactoferrin (LF) [4]) was 11.8 ± 1.9 nM and the Kd (lactoferrin (LF) [5]) was 2100 ± 900 nM.
